Results as given in patent publication US7108990B2, “Chemokine receptor” (ChemoCentryx, Inc., priority 1999, dated 2006).
“Also recorded” adds a separate entry of the source.

Assays:
CCX CKR [1] = target: T1, CCX CKR (Homo sapiens, UniProt Q9NPB9); assay: Adhesion of HEK293-CCX CKR cells to immobilized stalkokines and competition by soluble chemokines; type: cell-based; settings: soluble recombinant chemokine 5–10 ug/ml
T1 construct: Full length CCX CKR expression constructs were made in pIRESpuro expression vector; expressed in transfected cells
T1 sequence (Q9NPB9 1-350): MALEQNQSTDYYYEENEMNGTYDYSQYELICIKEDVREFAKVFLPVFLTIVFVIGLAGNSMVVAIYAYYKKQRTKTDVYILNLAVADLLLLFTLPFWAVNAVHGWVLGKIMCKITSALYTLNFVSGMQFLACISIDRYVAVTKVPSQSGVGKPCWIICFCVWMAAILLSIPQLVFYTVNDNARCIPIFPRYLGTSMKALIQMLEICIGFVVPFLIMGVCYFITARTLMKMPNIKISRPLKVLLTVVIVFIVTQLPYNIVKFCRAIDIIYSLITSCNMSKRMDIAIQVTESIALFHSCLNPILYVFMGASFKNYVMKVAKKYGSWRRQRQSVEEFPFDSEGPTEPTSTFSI
Excerpt: “Stalkokine” technology was used to identify the chemokines bound by the CCX CKR. Briefly, immobilized native chemokines alone are incapable of capturing cells bearing cognate receptors (Imai et al., 1997, Cell 91:521). We have developed non-native chemokine structures, stalkokines, comprising chemokine moieties engineered as N-terminal attachments to extended modified mucins (Bazan et al., 1997, Nature 385:640). In one embodiment, stalkokines, harvested in the supernatants of HEK293 cells after transient transfection, are anchored to solid substrates via antibodies against carrier domains (e.g. poly-His epitopes) engineered to the carboxyl terminus, leaving the chemokine domain free to interact with candidate orphan receptors.
To determine ligand binding to CCX CKR, HEK293-CCX CKR cells were used to interrogate chemokine ‘stalkokines’ (SK), i.e., molecules in which discrete chemokine domains were engineered to be tethered to the end of an extended stalk structure. Stalkokines were interrogated using 8-well chamber slides coated first with anti-His anchoring antibody (10 ug/ml in PBS overnight at RT), which were washed and ‘blocked’ (2% FBS/0.5% BSA in PBS); treated with 250 ul of HEK293 cell stalkokine supernatants (1 hr at 37 C), and incubated with 500,000 HEK293-CCX CKR transfectants (1.5 hrs at RT). Inhibition of adhesion by competition with soluble chemokines was done by incubating cells with 5–10 ug/ml of recombinant chemokines. In all cases, nonadherent cells were removed by washing in PBS; remaining adherent cells were fixed with 1% glutaraldehyde, photoimaged and counted. As a primary screen this adhesion would reveal putative receptor-ligand interactions.

CCX CKR [2] = target: T1, CCX CKR; assay: Preliminary chemotaxis analysis of CCX CKR transfectants; type: cell-based; settings: preliminary chemotaxis analyses
CCX CKR [3] = target: T1, CCX CKR; assay: Ligand binding fingerprint: cold chemokines competing against 125I-ELC on CCX CKR stable transfectants; settings: cold competitor at 200 nM; human and murine chemokines
Excerpt: In order to rapidly and thoroughly define a given chemokine receptor's ligand binding fingerprint, we have established an approach to comprehensively profile chemokine receptors using a large array of purified chemokines and chemokine variants. We used this approach to confirm independently the interaction of ELC and other chemokines with CCX CKR. Employing radioligand binding of ^125-labeled-ELC or ^125-TECK to CCX CKR stable transfectants, chemokine specificity for the new receptor was determined.
(§1) Binding analysis was carried out using efficiency-maximized radioligand binding utilizing filtration protocols designated “Displace Max” (Dairaghi et al., 1999, J. Biol. Chem. 274:21569). In these assays, DisplaceMax employed the simultaneous interrogation of CCX CKR transfectants by >80 distinct purified chemokines in the ability to displace radiolabeled ELC or TECK, using the protocol described (Dairaghi et al., 1999, J. Biol. Chem. 274:21569).

CCX CKR [4] = target: T1, CCX CKR; assay: Ligand induced internalization of Flag-CCX CKR in 293 cells (FACS); type: cell-based; settings: 100 nM chemokine, 37° C., 15 or 45 minutes, 293 F-CCR10 cells
Experimental: 293 cells transfected with the Flag-CCX CKR fusion plasmid (i.e., “293 F-CCR10 cells;” see Example 3) were incubated at 37° C. with varying concentrations of chemokines (ELC, SLC, TECK, murine CTACK and MCP-4) for 15 or 45 minutes. Following incubation, the cells were washed and fixed with 3% paraformaldehyde for 15 minutes on ice. The cells were stained with anti-Flag M1 antibody, followed by a PE-conjugated anti-mouse secondary antibody. FACS analysis were then carried out to determine surface expression of the receptor.
Results: A reduction in antibody binding in the presence of ligand is an indication of ligand-induced internalization of the receptor.

CCX CKR [5] = target: T1, CCX CKR; assay: Radioligand binding competition (DisplaceMax) to CCX CKR stable transfectants with Scatchard transformation
Excerpt: In one embodiment, binding is detected as described by Dairaghi et al., 1997, J. Biol. Chem. 272:28206–209 (incorporated by reference in its entirety for all purposes) substituting CCX CKR transfectants for the CCR3 transfectants). In one embodiment, binding is detected using the filter based technique described by Dairaghi et al., 1999, J. Biol. Chem. 274:2156 (incorporated by reference in its entirety for all purposes), e.g., as shown in FIG. 4. Briefly, this technology employs expanded, efficiency-maximized radioligand binding utilizing filtration protocols. In these assays, 1×10^5 CCXCKR-293 HEK cells are incubated with ^125I-labeled ELC (MIP3beta) (final concentration of ˜0.05 nM) in the presence of unlabeled chemokine for 3 h at 4° C. in 25 mM HEPES, 140 mM NaCl, 1 mM CaCl2, 5 mM MgCl2, and 0.2% bovine serum albumin, adjusted to pH 7.1. Reactions were aspirated onto PEI-treated GF/B glass filters using a cell harvester (Packard). Filters are washed twice (25 mM HEPES, 500 mM NaCl, 1 mM CaCl2 5 mM MgCl2, adjusted to pH 7.1) and scintillant (e.g., MicroScint 20; 50 μl) is added to dried filters and counted (e.g., using a Packard Topcount scintillation counter). The competition dose-response curves is analyzed by standard methods to determine IC50 values (e.g., using GraphPad Prism software (San Diego, Calif.)). Additionally, a Scatchard transformation can be used to estimate the receptor sites per cell (e.g., using WaveMetrics Igor software (Lake Oswego, Oreg.)).
as §1
The binding interactions identified in the primary screen were examined quantitatively by extensive radioligand binding competition to CCX CKR stable transfectants and Scatchard transformation of the displacement data (FIG. 4B). […] In each case, the murine versions of these chemokines also bound, and with even greater affinity; the apparent Kd's are listed in FIG. 4B. […] In similar experiments, murine CTACK bound the receptor with a Kd of ˜9 nM (not shown). CTACK is also referred to as CCL27, ALP, ILC, and ESkine.

CCX CKR [6] = target: T1, CCX CKR; assay: Homologous competition binding assay with radiolabeled chemokine on HEK293-CCX CKR cells; settings: HEK293-CCX CKR cells versus wildtype HEK293 cells
Excerpt: Furthermore ELC-SK mediated adhesion was abolished in the presence of soluble native ELC as a competitor (FIG. 3A, top row). […] Moreover, radiolabeled ELC was used in a traditional homologous competition assay in the presence of increasing concentrations of unlabeled ELC. […] Taken together, the stalkokine-based adhesion and radiolabeled ligand binding/homologous competition assays indicate that CCX CKR is a new chemokine receptor that bound a novel compliment of chemokines.

## ELC: EBI1 ligand chemokine, recombinant
CCX CKR [1]
  effect of soluble chemokine on ELC-SK mediated adhesion of HEK293-CCX CKR cells: abolished; also recorded: ablation of adhesion
CCX CKR [2]
  migration of CCX CKR transfectants in response to chemokine: moderate migration
CCX CKR [3]
  competition with 125I-labeled ELC binding to CCX CKR (fingerprint): bound well
CCX CKR [4]
  internalization of CCX CKR: Internalization of the receptor was observed
CCX CKR [5]
  affinity of binding to CCX CKR, in words: high affinity
CCX CKR [6]
  binding in homologous competition of radiolabeled with unlabeled chemokine: significant binding

B1: SLC: secondary lymphoid-tissue chemokine, recombinant (protein)
chain: SDGGAQDCCLKYSQRKIPAKVVRSYRKQEPSLGCSIPAILFLPRKRSQAELCADPKELWVQQLMQHLDKTPSPQKPAQGCRKDRGASKTGKKGKGSKGCKRTERSQTPKGP
CCX CKR [1]
  effect of soluble chemokine on ELC-SK mediated adhesion of HEK293-CCX CKR cells: significant reduction; also recorded: ablation of adhesion
CCX CKR [2]
  migration of CCX CKR transfectants in response to chemokine: moderate migration
CCX CKR [3]
  competition with 125I-labeled ELC binding to CCX CKR (fingerprint): bound well
CCX CKR [4]
  internalization of CCX CKR: Internalization of the receptor was observed
CCX CKR [5]
  affinity of binding to CCX CKR, in words: high affinity
